In patent publication EP2213302A2 (Genentech, Inc., dated 2010) one finds Kd data, which are given here for 1 molecule.

The target of this assay is T1, DR4 ECD immunoadhesin (human, UniProt O00220 24-218).
T1 construct: also called DR4-IgG; DR4 ECD-IgG; not shown: CH1, hinge and Fc region of human immunoglobulin G1 heavy chain
Nature of the assay: KinExA equilibrium, antibody in solution with DR4-IgG, DR4-IgG beads. In general terms: A kinetic exclusion assay measures how much of one partner remains free in solution.

T1 sequence (O00220 other isoform, or with tags, fused parts or gaps): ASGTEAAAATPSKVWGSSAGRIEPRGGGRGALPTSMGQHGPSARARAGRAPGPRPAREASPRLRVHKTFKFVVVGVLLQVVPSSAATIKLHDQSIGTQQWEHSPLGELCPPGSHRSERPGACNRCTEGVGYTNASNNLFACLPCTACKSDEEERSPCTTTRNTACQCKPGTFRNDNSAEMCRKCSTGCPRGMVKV

B1: 4H6.17.8 anti-DR4 monoclonal antibody (murine) (antibody, V domains shown)
VH: QVQLKESGPGLVAPSQSLSITCTVSGFSLTSYGVHWVRQPPGKGLEWLGVIWAVGSTNYNSALMSRLSISKDNSKSQVFLKMNSLQTDDTAMYYCAREGEFDYYGSSLLSYHSMNFWGQGTSVTVS
VL: DIQMTQTTSSLSASLGDRVTISCRASQDISNYLNWYQRKPDGTVKLLIYYTSRLHSGVPSRFSGSGSGTDYSLTISNLEQEDIATYFCQQGNTLPFTFGSATKLELT
notes: Murine IgG1 from hybridoma ATCC HB-12455; only the variable domains apply here; the listing has Xaa at 20)
Consider B1, for which the Kd came to 5 pM.

A word on the Kd: it is the equilibrium constant for the complex coming apart.
